From PMC10786891, “Massively parallel profiling of RNA-targeting CRISPR-Cas13d” come the findings set out here.

T1: EsCas13d, nuclease-dead (Eubacterium siraeum, UniProt B0MS50, R295A;H300A;R849A;H854A)
T1 sequence: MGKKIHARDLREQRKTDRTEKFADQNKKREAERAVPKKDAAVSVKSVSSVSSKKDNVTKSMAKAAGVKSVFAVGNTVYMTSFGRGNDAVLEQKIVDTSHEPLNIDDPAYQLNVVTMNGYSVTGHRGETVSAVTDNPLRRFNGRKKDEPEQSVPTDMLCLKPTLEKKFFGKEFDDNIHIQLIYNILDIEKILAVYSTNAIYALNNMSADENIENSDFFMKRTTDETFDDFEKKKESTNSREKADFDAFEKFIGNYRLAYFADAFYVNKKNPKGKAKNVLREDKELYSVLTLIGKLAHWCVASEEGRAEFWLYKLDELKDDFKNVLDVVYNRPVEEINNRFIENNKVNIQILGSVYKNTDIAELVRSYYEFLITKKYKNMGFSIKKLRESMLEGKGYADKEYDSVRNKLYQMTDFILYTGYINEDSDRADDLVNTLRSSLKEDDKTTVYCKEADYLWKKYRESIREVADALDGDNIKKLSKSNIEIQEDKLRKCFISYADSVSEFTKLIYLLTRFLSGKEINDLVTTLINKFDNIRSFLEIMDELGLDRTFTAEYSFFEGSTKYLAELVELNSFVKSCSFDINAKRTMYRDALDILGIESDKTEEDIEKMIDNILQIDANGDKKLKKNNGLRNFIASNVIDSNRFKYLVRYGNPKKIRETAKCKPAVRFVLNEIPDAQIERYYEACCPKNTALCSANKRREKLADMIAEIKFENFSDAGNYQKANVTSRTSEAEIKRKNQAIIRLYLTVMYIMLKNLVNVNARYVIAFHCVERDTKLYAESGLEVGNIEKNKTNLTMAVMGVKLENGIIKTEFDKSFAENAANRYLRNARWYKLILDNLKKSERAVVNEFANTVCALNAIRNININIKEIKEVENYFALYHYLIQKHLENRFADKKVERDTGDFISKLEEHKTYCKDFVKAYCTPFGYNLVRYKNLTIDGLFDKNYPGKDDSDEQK

B1: target 1 insG 3' of 16,insU 3' of 7 (mixed)
RNA 1: CACCCGUGCAAAAAUGCAGGGGUCUAAAACUGAGCGGAUAACCUCUCUAUGG
RNA 2: GGGAAUGGAUCCACAUCUACGAAUUCGUACCAUAGAGGAGGUUAUCUCGCUCACCGAGAUCGGAAGAGCACACGU
B2: target 1 del5,del9 (mixed)
RNA 1: CACCCGUGCAAAAAUGCAGGGGUCUAAAACUGAGCGGAUAACCUCUCUAUGG
RNA 2: GGGAAUGGAUCCACAUCUACGAAUUCGUACCAUAGAGAGGUUUCCCUCACCGAGAUCGGAAGAGCACACGU
B3: target 1 G15A,G17C (mixed)
RNA 1: CACCCGUGCAAAAAUGCAGGGGUCUAAAACUGAGCGGAUAACCUCUCUAUGG
RNA 2: GGGAAUGGAUCCACAUCUACGAAUUCGUACCAUACAAAGGUUAUCCGCUCACCGAGAUCGGAAGAGCACACGU
B4: target 1 insC 3' of 10,insC 3' of 5 (mixed)
RNA 1: CACCCGUGCAAAAAUGCAGGGGUCUAAAACUGAGCGGAUAACCUCUCUAUGG
RNA 2: GGGAAUGGAUCCACAUCUACGAAUUCGUACCAUAGAGAGGUUCAUCCGCCUCACCGAGAUCGGAAGAGCACACGU
B5: target 1 insG 3' of 16,insC 3' of 13 (mixed)
RNA 1: CACCCGUGCAAAAAUGCAGGGGUCUAAAACUGAGCGGAUAACCUCUCUAUGG
RNA 2: GGGAAUGGAUCCACAUCUACGAAUUCGUACCAUAGAGGAGCGUUAUCCGCUCACCGAGAUCGGAAGAGCACACGU
B6: target 1 C6G,G12A (mixed)
RNA 1: CACCCGUGCAAAAAUGCAGGGGUCUAAAACUGAGCGGAUAACCUCUCUAUGG
RNA 2: GGGAAUGGAUCCACAUCUACGAAUUCGUACCAUAGAGAGAUUAUCGGCUCACCGAGAUCGGAAGAGCACACGU
B7: target 1 A16C,G17A (mixed)
RNA 1: CACCCGUGCAAAAAUGCAGGGGUCUAAAACUGAGCGGAUAACCUCUCUAUGG
RNA 2: GGGAAUGGAUCCACAUCUACGAAUUCGUACCAUAACGAGGUUAUCCGCUCACCGAGAUCGGAAGAGCACACGU
B8: target 1 C2G,U11G (mixed)
RNA 1: CACCCGUGCAAAAAUGCAGGGGUCUAAAACUGAGCGGAUAACCUCUCUAUGG
RNA 2: GGGAAUGGAUCCACAUCUACGAAUUCGUACCAUAGAGAGGGUAUCCGCUGACCGAGAUCGGAAGAGCACACGU
B9: target 1 A1U,A16G (mixed)
RNA 1: CACCCGUGCAAAAAUGCAGGGGUCUAAAACUGAGCGGAUAACCUCUCUAUGG
RNA 2: GGGAAUGGAUCCACAUCUACGAAUUCGUACCAUAGGGAGGUUAUCCGCUCUCCGAGAUCGGAAGAGCACACGU
B10: target 1 insG 3' of 18,insU 3' of 7 (mixed)
RNA 1: CACCCGUGCAAAAAUGCAGGGGUCUAAAACUGAGCGGAUAACCUCUCUAUGG
RNA 2: GGGAAUGGAUCCACAUCUACGAAUUCGUACCAUAGGAGAGGUUAUCUCGCUCACCGAGAUCGGAAGAGCACACGU
B11: target 1 complement block 1-4 (mixed)
RNA 1: CACCCGUGCAAAAAUGCAGGGGUCUAAAACUGAGCGGAUAACCUCUCUAUGG
RNA 2: GGGAAUGGAUCCACAUCUACGAAUUCGUACCAUAGAGAGGUUAUCCGGAGUCCGAGAUCGGAAGAGCACACGU
B12: target 1 complement block 2-4 (mixed)
RNA 1: CACCCGUGCAAAAAUGCAGGGGUCUAAAACUGAGCGGAUAACCUCUCUAUGG
RNA 2: GGGAAUGGAUCCACAUCUACGAAUUCGUACCAUAGAGAGGUUAUCCGGAGACCGAGAUCGGAAGAGCACACGU
B13: target 1 insU 3' of 20,insG 3' of 2 (mixed)
RNA 1: CACCCGUGCAAAAAUGCAGGGGUCUAAAACUGAGCGGAUAACCUCUCUAUGG
RNA 2: GGGAAUGGAUCCACAUCUACGAAUUCGUACCAUUAGAGAGGUUAUCCGCUCGACCGAGAUCGGAAGAGCACACGU
B14: target 1 insA 3' of 21,insC 3' of 3 (mixed)
RNA 1: CACCCGUGCAAAAAUGCAGGGGUCUAAAACUGAGCGGAUAACCUCUCUAUGG
RNA 2: GGGAAUGGAUCCACAUCUACGAAUUCGUACCAAUAGAGAGGUUAUCCGCUCCACCGAGAUCGGAAGAGCACACGU
B15: target 1 del8,del13 (mixed)
RNA 1: CACCCGUGCAAAAAUGCAGGGGUCUAAAACUGAGCGGAUAACCUCUCUAUGG
RNA 2: GGGAAUGGAUCCACAUCUACGAAUUCGUACCAUAGAGAGUUACCGCUCACCGAGAUCGGAAGAGCACACGU
B16: target 1 A9G,A20U (mixed)
RNA 1: CACCCGUGCAAAAAUGCAGGGGUCUAAAACUGAGCGGAUAACCUCUCUAUGG
RNA 2: GGGAAUGGAUCCACAUCUACGAAUUCGUACCUUAGAGAGGUUGUCCGCUCACCGAGAUCGGAAGAGCACACGU
B17: target 1 U3A,A9G (mixed)
RNA 1: CACCCGUGCAAAAAUGCAGGGGUCUAAAACUGAGCGGAUAACCUCUCUAUGG
RNA 2: GGGAAUGGAUCCACAUCUACGAAUUCGUACCAUAGAGAGGUUGUCCGCACACCGAGAUCGGAAGAGCACACGU
B18: target 1 insC 3' of 17,insA 3' of 13 (mixed)
RNA 1: CACCCGUGCAAAAAUGCAGGGGUCUAAAACUGAGCGGAUAACCUCUCUAUGG
RNA 2: GGGAAUGGAUCCACAUCUACGAAUUCGUACCAUAGCAGAGAGUUAUCCGCUCACCGAGAUCGGAAGAGCACACGU
B19: target 1 G5U,G17C (mixed)
RNA 1: CACCCGUGCAAAAAUGCAGGGGUCUAAAACUGAGCGGAUAACCUCUCUAUGG
RNA 2: GGGAAUGGAUCCACAUCUACGAAUUCGUACCAUACAGAGGUUAUCCUCUCACCGAGAUCGGAAGAGCACACGU
B20: target 1 C2U,G5U (mixed)
RNA 1: CACCCGUGCAAAAAUGCAGGGGUCUAAAACUGAGCGGAUAACCUCUCUAUGG
RNA 2: GGGAAUGGAUCCACAUCUACGAAUUCGUACCAUAGAGAGGUUAUCCUCUUACCGAGAUCGGAAGAGCACACGU
B21: target 1 insC 3' of 9,insC 3' of 3 (mixed)
RNA 1: CACCCGUGCAAAAAUGCAGGGGUCUAAAACUGAGCGGAUAACCUCUCUAUGG
RNA 2: GGGAAUGGAUCCACAUCUACGAAUUCGUACCAUAGAGAGGUUACUCCGCUCCACCGAGAUCGGAAGAGCACACGU
B22: target 1 insC 3' of 22,insA 3' of 3 (mixed)
RNA 1: CACCCGUGCAAAAAUGCAGGGGUCUAAAACUGAGCGGAUAACCUCUCUAUGG
RNA 2: GGGAAUGGAUCCACAUCUACGAAUUCGUACCCAUAGAGAGGUUAUCCGCUACACCGAGAUCGGAAGAGCACACGU
B23: target 1 insG 3' of 21,insA 3' of 5 (mixed)
RNA 1: CACCCGUGCAAAAAUGCAGGGGUCUAAAACUGAGCGGAUAACCUCUCUAUGG
RNA 2: GGGAAUGGAUCCACAUCUACGAAUUCGUACCGAUAGAGAGGUUAUCCGACUCACCGAGAUCGGAAGAGCACACGU
B24: target 1 insG 3' of 22,insC 3' of 17 (mixed)
RNA 1: CACCCGUGCAAAAAUGCAGGGGUCUAAAACUGAGCGGAUAACCUCUCUAUGG
RNA 2: GGGAAUGGAUCCACAUCUACGAAUUCGUACGCAUAGCAGAGGUUAUCCGCUCACCGAGAUCGGAAGAGCACACGU
B25: target 1 C2G,C6U (mixed)
RNA 1: CACCCGUGCAAAAAUGCAGGGGUCUAAAACUGAGCGGAUAACCUCUCUAUGG
RNA 2: GGGAAUGGAUCCACAUCUACGAAUUCGUACCAUAGAGAGGUUAUCUGCUGACCGAGAUCGGAAGAGCACACGU
B26: target 1 insU 3' of 6,insA 3' of 5 (mixed)
RNA 1: CACCCGUGCAAAAAUGCAGGGGUCUAAAACUGAGCGGAUAACCUCUCUAUGG
RNA 2: GGGAAUGGAUCCACAUCUACGAAUUCGUACCAUAGAGAGGUUAUCCUGACUCACCGAGAUCGGAAGAGCACACGU
B27: target 1 A9G,U11A (mixed)
RNA 1: CACCCGUGCAAAAAUGCAGGGGUCUAAAACUGAGCGGAUAACCUCUCUAUGG
RNA 2: GGGAAUGGAUCCACAUCUACGAAUUCGUACCAUAGAGAGGAUGUCCGCUCACCGAGAUCGGAAGAGCACACGU

The series concerns the target T1, EsCas13d, nuclease-dead. Nature of the series: crRNA (strand 1, pre-loaded); Mg2+; 40 mM Tris-HCl pH 7.5, 150 mM NaCl, 6 mM MgCl2, 1 mM DTT, 0.1% Tween-20, 0.2 mg/ml BSA; 25 C; 10 min per concentration, then washed. Particulars: tags: His6-TwinStrep-SUMO cleaved; N-terminal SNAP kept (SNAP-Surface 488); label: 3' end held by stalled T7 RNA polymerase.
Broadly, the Kd is the equilibrium constant for the complex coming apart. B1: binding was characterised by a dissociation constant (Kd) of 22.8 ± 1.8 nM.
For B2 the value was 15.9 ± 0.6 nM; for B3, 62 ± 16 nM; for B4, 11.1 ± 1.1 nM.
Then B5, with 34 ± 4 nM.
For B6 the value was 10.8 ± 0.7 nM; for B7, 52 ± 4 nM; for B8, 11 ± 0.6 nM.
For the molecule B9, the Kd is 33 ± 7 nM.
For B10 the value was 67 ± 8 nM; for B11, 5.46 ± 0.29 nM; for B12, 11 ± 0.5 nM.
For B13 the value was 11.7 ± 0.5 nM.
B14 showed a Kd of 13.2 ± 0.7 nM.
For B15 the value was 16.1 ± 0.8 nM; for B16, 48 ± 8 nM; for B17, 7.34 ± 0.29 nM.
Then B18, with 22.3 ± 2.4 nM; and B19, with 80 ± 40 nM; and B20, with 23.2 ± 1 nM.
For B21 the value was 11 ± 1 nM; for B22, 11.8 ± 0.5 nM; for B23, 37 ± 9 nM.
Consider B24, for which the equilibrium dissociation constant (Kd) was around 70 nM.
With B25, the Kd is 4.97 ± 0.22 nM.
For B26 the value was 24 ± 2 nM.
Then B27, with 42.7 ± 3.1 nM.
